Experimental data as given in PMC9482650, “Quantitative fragmentomics allow affinity mapping of interactomes” (Nature Communications, 2022).

T1: MPDZ_10, O75970
T1 sequence (O75970 1624-1722, limits assumed, looked up): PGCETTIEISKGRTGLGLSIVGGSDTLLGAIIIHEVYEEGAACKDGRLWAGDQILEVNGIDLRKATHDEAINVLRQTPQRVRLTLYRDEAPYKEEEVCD

T2: APBA3_1, O96018
T2 sequence (O96018 389-490, limits assumed, looked up): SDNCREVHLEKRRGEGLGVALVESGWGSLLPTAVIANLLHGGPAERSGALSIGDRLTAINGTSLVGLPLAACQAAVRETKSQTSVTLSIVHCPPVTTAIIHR

T3: CARD11, Q9BXL7
T3 sequence (Q9BXL7 662-765, limits assumed, looked up): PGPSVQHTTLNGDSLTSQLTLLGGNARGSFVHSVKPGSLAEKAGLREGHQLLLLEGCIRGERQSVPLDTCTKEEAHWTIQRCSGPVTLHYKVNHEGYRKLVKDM

T4: ARHGAP21, Q5T5U3
T4 sequence (Q5T5U3 45-169, limits assumed, looked up): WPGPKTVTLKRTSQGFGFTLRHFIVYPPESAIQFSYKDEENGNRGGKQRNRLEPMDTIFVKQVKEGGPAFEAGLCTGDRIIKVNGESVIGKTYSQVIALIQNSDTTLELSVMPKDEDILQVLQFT

T5: RADIL, Q96JH8
T5 sequence (Q96JH8 971-1071, limits assumed, looked up): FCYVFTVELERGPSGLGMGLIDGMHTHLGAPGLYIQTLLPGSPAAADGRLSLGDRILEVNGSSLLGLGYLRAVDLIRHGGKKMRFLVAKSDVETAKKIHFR

T6: NHERF3_4, Q5T2W1
T6 sequence (Q5T2W1 373-468, limits assumed, looked up): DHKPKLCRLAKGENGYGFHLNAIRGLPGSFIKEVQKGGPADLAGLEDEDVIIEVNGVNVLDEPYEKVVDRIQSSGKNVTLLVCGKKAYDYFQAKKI

T7: MPP7, Q5T2T1
T7 sequence (Q5T2T1 134-230, limits assumed, looked up): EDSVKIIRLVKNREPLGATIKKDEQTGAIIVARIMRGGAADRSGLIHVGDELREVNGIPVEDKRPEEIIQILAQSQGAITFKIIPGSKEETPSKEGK

T8: DVL3, Q92997
T8 sequence (Q92997 244-331, limits assumed, looked up): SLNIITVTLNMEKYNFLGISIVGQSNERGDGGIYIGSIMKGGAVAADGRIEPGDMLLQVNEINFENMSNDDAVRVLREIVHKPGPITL


The binders below were run against PDZRN4_1, Q6ZMN7 (assay: holdup assay). Conditions: plain residues with an end cap or a label only (N-terminal biotin on a linker: ado-ado).
PDZRN4_1, Q6ZMN7, sequence (Q6ZMN7 213-318): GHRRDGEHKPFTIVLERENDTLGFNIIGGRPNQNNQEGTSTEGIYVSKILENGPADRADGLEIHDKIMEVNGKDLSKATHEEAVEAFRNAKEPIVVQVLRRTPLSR
Parameters: key: below the threshold = too weak to quantify, mostly under pKd 3.1 to 4
RELVMRVTTV [MARCHF4, Q9P2E8] showed a pKd of 3.88.

The binders below were run against Inadl_6, Q8NI35 (assay: holdup assay). Conditions: plain residues with an end cap or a label only (N-terminal biotin on a linker: ado-ado).
Inadl_6, Q8NI35, sequence (Q8NI35 1058-1167): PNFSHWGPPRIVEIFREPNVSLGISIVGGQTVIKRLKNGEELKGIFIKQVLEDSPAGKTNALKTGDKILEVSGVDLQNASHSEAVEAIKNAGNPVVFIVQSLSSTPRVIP
Parameters: key: below the threshold = too weak to quantify, mostly under pKd 3.1 to 4
For RELVMRVTTV [MARCHF4, Q9P2E8], the pKd was 3.95.

The binders below were run against DLG4_1, P78352 (assay: holdup assay). Conditions: plain residues with an end cap or a label only (N-terminal biotin on a linker: ado-ado).
DLG4_1, P78352, sequence (P78352 62-152): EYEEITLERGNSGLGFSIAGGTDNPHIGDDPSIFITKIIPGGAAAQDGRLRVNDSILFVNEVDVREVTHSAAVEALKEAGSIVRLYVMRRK
Parameters: key: below the threshold = too weak to quantify, mostly under pKd 3.1 to 4
Binder RELVMRVTTV [MARCHF4, Q9P2E8] has a pKd of 5.03.

The binders below were run against MAGI2_2, Q86UL8 (assay: holdup assay). Conditions: plain residues with an end cap or a label only (N-terminal biotin on a linker: ado-ado).
MAGI2_2, Q86UL8, sequence (Q86UL8 410-522): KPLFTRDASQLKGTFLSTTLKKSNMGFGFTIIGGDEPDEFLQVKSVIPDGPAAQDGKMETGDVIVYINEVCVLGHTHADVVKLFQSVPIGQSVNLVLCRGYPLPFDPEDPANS
Parameters: key: below the threshold = too weak to quantify, mostly under pKd 3.1 to 4
RELVMRVTTV [MARCHF4, Q9P2E8] gave a pKd of 5.12.

What follows are binders tested against GRIP2_5, Q9C0E4 (assay: holdup assay). Conditions: plain residues with an end cap or a label only (N-terminal biotin on a linker: ado-ado).
GRIP2_5, Q9C0E4, sequence (Q9C0E4 544-642): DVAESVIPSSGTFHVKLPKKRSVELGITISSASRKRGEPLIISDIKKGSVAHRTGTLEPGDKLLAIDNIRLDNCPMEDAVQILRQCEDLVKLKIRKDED
Parameters: key: below the threshold = too weak to quantify, mostly under pKd 3.1 to 4
RELVMRVTTV [MARCHF4, Q9P2E8] was tested, and the pKd was “below the threshold”.

Each binder was assayed against MAGI2_3, Q86UL8 (assay: holdup assay). Conditions: plain residues with an end cap or a label only (N-terminal biotin on a linker: ado-ado).
MAGI2_3, Q86UL8, sequence (Q86UL8 600-682): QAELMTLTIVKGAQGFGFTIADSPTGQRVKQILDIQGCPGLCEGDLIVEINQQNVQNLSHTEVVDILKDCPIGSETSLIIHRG
Parameters: key: below the threshold = too weak to quantify, mostly under pKd 3.1 to 4
Work on RELVMRVTTV [MARCHF4, Q9P2E8] yielded a pKd of 4.56.

The binders below were run against Inadl_10, Q8NI35 (assay: holdup assay). Conditions: plain residues with an end cap or a label only (N-terminal biotin on a linker: ado-ado).
Inadl_10, Q8NI35, sequence (Q8NI35 1673-1763): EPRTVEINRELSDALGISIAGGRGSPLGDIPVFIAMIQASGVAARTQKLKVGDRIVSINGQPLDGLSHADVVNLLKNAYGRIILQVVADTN
Parameters: key: below the threshold = too weak to quantify, mostly under pKd 3.1 to 4
In the case of RELVMRVTTV [MARCHF4, Q9P2E8], the pKd is reported as “below the threshold”.

Each binder was assayed against MAGI2_4, Q86UL8 (assay: holdup assay). Conditions: plain residues with an end cap or a label only (N-terminal biotin on a linker: ado-ado).
MAGI2_4, Q86UL8, sequence (Q86UL8 772-865): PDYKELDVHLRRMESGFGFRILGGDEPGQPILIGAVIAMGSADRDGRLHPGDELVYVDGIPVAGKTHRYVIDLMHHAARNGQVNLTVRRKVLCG
Parameters: key: below the threshold = too weak to quantify, mostly under pKd 3.1 to 4
With RELVMRVTTV [MARCHF4, Q9P2E8] the pKd was 4.82.

These binders were tested against T1, MPDZ_10, O75970 (assay: holdup assay). Conditions: plain residues with an end cap or a label only (N-terminal biotin on a linker: ado-ado).
Parameters: key: below the threshold = too weak to quantify, mostly under pKd 3.1 to 4
RELVMRVTTV [MARCHF4, Q9P2E8] was tested, and the pKd was 4.35.

The binders below were run against FRMPD2_3, Q68DX3 (assay: holdup assay). Conditions: plain residues with an end cap or a label only (N-terminal biotin on a linker: ado-ado).
FRMPD2_3, Q68DX3, sequence (Q68DX3 1073-1166): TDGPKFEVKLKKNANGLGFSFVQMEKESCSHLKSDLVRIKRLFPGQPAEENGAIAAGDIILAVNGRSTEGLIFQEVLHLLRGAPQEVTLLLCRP
Parameters: key: below the threshold = too weak to quantify, mostly under pKd 3.1 to 4
For RELVMRVTTV [MARCHF4, Q9P2E8], the pKd was “below the threshold”.

The binders below were run against GORASP1, Q9BQQ3 (assay: holdup assay). Conditions: plain residues with an end cap or a label only (N-terminal biotin on a linker: ado-ado).
GORASP1, Q9BQQ3, sequence (Q9BQQ3 1-208): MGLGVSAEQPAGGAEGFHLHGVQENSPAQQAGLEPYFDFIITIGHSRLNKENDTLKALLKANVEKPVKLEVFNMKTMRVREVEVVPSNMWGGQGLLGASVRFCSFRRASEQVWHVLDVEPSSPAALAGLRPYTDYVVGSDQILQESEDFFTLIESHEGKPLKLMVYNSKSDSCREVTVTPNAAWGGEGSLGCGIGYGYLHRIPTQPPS
Parameters: key: below the threshold = too weak to quantify, mostly under pKd 3.1 to 4
For RELVMRVTTV [MARCHF4, Q9P2E8], the pKd was 4.36.

The binders below were run against MAGI3_2, Q5TCQ9 (assay: holdup assay). Conditions: plain residues with an end cap or a label only (N-terminal biotin on a linker: ado-ado).
MAGI3_2, Q5TCQ9, sequence (Q5TCQ9 398-503): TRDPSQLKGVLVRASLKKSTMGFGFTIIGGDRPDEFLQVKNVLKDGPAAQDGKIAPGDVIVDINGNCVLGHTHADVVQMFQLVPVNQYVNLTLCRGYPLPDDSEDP
Parameters: key: below the threshold = too weak to quantify, mostly under pKd 3.1 to 4
RELVMRVTTV [MARCHF4, Q9P2E8] gave a pKd of 5.07.

The binders below were run against T2, APBA3_1, O96018 (assay: holdup assay). Conditions: plain residues with an end cap or a label only (N-terminal biotin on a linker: ado-ado).
Parameters: key: below the threshold = too weak to quantify, mostly under pKd 3.1 to 4
With RELVMRVTTV [MARCHF4, Q9P2E8] the pKd was “below the threshold”.

Each binder was assayed against SCRIB_3, Q14160 (assay: holdup assay). Conditions: plain residues with an end cap or a label only (N-terminal biotin on a linker: ado-ado).
SCRIB_3, Q14160, sequence (Q14160 999-1103): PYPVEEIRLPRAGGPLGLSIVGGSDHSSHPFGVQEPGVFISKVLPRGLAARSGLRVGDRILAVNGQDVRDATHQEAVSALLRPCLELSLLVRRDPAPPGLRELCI
Parameters: key: below the threshold = too weak to quantify, mostly under pKd 3.1 to 4
With RELVMRVTTV [MARCHF4, Q9P2E8] the pKd was 4.73.

The binders below were run against T3, CARD11, Q9BXL7 (assay: holdup assay). Conditions: plain residues with an end cap or a label only (N-terminal biotin on a linker: ado-ado).
Parameters: key: below the threshold = too weak to quantify, mostly under pKd 3.1 to 4
With RELVMRVTTV [MARCHF4, Q9P2E8] the pKd was “below the threshold”.

Each binder was assayed against LDB3, O75112 (assay: holdup assay). Conditions: plain residues with an end cap or a label only (N-terminal biotin on a linker: ado-ado).
LDB3, O75112, sequence (O75112 1-94): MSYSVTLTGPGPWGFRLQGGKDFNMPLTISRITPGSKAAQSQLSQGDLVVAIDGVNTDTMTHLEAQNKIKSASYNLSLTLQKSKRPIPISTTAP
Parameters: key: below the threshold = too weak to quantify, mostly under pKd 3.1 to 4
RELVMRVTTV [MARCHF4, Q9P2E8] was tested, and the pKd was “below the threshold”.

The binders below were run against Inadl_9, Q8NI35 (assay: holdup assay). Conditions: plain residues with an end cap or a label only (N-terminal biotin on a linker: ado-ado).
Inadl_9, Q8NI35, sequence (Q8NI35 1530-1615): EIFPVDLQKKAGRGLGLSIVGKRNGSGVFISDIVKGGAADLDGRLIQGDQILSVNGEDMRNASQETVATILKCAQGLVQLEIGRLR
Parameters: key: below the threshold = too weak to quantify, mostly under pKd 3.1 to 4
Binder RELVMRVTTV [MARCHF4, Q9P2E8] has a pKd of 3.82.

The binders below were run against DLG2_2, Q15700 (assay: holdup assay). Conditions: plain residues with an end cap or a label only (N-terminal biotin on a linker: ado-ado).
DLG2_2, Q15700, sequence (Q15700 189-283): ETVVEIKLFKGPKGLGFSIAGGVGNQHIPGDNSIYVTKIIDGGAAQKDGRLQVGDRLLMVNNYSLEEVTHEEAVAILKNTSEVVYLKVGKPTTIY
Parameters: key: below the threshold = too weak to quantify, mostly under pKd 3.1 to 4
Work on RELVMRVTTV [MARCHF4, Q9P2E8] yielded a pKd of 5.2.

Each binder was assayed against PTPN3, P26045 (assay: holdup assay). Conditions: plain residues with an end cap or a label only (N-terminal biotin on a linker: ado-ado).
PTPN3, P26045, sequence (P26045 505-587): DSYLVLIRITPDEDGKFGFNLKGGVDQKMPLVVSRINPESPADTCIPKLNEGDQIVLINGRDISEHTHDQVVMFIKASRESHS
Parameters: key: below the threshold = too weak to quantify, mostly under pKd 3.1 to 4
RELVMRVTTV [MARCHF4, Q9P2E8] was tested, and the pKd was 4.54.

What follows are binders tested against T4, ARHGAP21, Q5T5U3 (assay: holdup assay). Conditions: plain residues with an end cap or a label only (N-terminal biotin on a linker: ado-ado).
Parameters: key: below the threshold = too weak to quantify, mostly under pKd 3.1 to 4
RELVMRVTTV [MARCHF4, Q9P2E8] was tested, and the pKd was “below the threshold”.

The binders below were run against ARHGEF12, Q9NZN5-2 (assay: holdup assay). Conditions: plain residues with an end cap or a label only (N-terminal biotin on a linker: ado-ado).
ARHGEF12, Q9NZN5-2, sequence (Q9NZN5 other isoform, or with tags, fused parts or gaps): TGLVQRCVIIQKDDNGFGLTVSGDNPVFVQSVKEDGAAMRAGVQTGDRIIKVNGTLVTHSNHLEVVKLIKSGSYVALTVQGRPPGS
Parameters: key: below the threshold = too weak to quantify, mostly under pKd 3.1 to 4
For RELVMRVTTV [MARCHF4, Q9P2E8], the pKd was 4.86.

These binders were tested against T5, RADIL, Q96JH8 (assay: holdup assay). Conditions: plain residues with an end cap or a label only (N-terminal biotin on a linker: ado-ado).
Parameters: key: below the threshold = too weak to quantify, mostly under pKd 3.1 to 4
RELVMRVTTV [MARCHF4, Q9P2E8] gave a pKd of 4.74.

Each binder was assayed against T6, NHERF3_4, Q5T2W1 (assay: holdup assay). Conditions: plain residues with an end cap or a label only (N-terminal biotin on a linker: ado-ado).
Parameters: key: below the threshold = too weak to quantify, mostly under pKd 3.1 to 4
Binder RELVMRVTTV [MARCHF4, Q9P2E8] has a pKd of 3.58.

These binders were tested against LNX1_2, Q8TBB1 (assay: holdup assay). Conditions: plain residues with an end cap or a label only (N-terminal biotin on a linker: ado-ado).
LNX1_2, Q8TBB1, sequence (Q8TBB1 371-470): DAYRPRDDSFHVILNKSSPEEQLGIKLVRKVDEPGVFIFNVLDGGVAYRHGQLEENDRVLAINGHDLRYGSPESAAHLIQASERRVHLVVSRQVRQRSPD
Parameters: key: below the threshold = too weak to quantify, mostly under pKd 3.1 to 4
With RELVMRVTTV [MARCHF4, Q9P2E8] the pKd was 4.58.

These binders were tested against T7, MPP7, Q5T2T1 (assay: holdup assay). Conditions: plain residues with an end cap or a label only (N-terminal biotin on a linker: ado-ado).
Parameters: key: below the threshold = too weak to quantify, mostly under pKd 3.1 to 4
RELVMRVTTV [MARCHF4, Q9P2E8] was tested, and the pKd was “below the threshold”.

The binders below were run against MAGI1_1, Q96QZ7 (assay: holdup assay). Conditions: plain residues with an end cap or a label only (N-terminal biotin on a linker: ado-ado).
MAGI1_1, Q96QZ7, sequence (Q96QZ7 1-106): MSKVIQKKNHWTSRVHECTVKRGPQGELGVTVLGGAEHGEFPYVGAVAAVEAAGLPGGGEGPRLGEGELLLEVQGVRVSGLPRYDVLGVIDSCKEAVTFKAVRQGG
Parameters: key: below the threshold = too weak to quantify, mostly under pKd 3.1 to 4
For RELVMRVTTV [MARCHF4, Q9P2E8], the pKd was “below the threshold”.

The binders below were run against LNX1_1, Q8TBB1 (assay: holdup assay). Conditions: plain residues with an end cap or a label only (N-terminal biotin on a linker: ado-ado).
LNX1_1, Q8TBB1, sequence (Q8TBB1 261-371): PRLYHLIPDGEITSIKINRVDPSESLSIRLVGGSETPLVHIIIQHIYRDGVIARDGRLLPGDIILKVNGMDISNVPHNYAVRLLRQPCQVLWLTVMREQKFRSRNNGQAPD
Parameters: key: below the threshold = too weak to quantify, mostly under pKd 3.1 to 4
RELVMRVTTV [MARCHF4, Q9P2E8] gave a pKd of 3.98.

What follows are binders tested against FRMPD4, Q14CM0 (assay: holdup assay). Conditions: plain residues with an end cap or a label only (N-terminal biotin on a linker: ado-ado).
FRMPD4, Q14CM0, sequence (Q14CM0 67-160): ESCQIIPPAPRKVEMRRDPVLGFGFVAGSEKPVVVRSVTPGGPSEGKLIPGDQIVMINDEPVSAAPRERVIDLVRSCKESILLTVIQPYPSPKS
Parameters: key: below the threshold = too weak to quantify, mostly under pKd 3.1 to 4
In the case of RELVMRVTTV [MARCHF4, Q9P2E8], the pKd is reported as “below the threshold”.

Each binder was assayed against NOS1, P29475 (assay: holdup assay). Conditions: plain residues with an end cap or a label only (N-terminal biotin on a linker: ado-ado).
NOS1, P29475, sequence (P29475 9-101): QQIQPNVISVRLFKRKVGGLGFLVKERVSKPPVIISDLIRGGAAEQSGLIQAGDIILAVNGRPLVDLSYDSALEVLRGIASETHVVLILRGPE
Parameters: key: below the threshold = too weak to quantify, mostly under pKd 3.1 to 4
RELVMRVTTV [MARCHF4, Q9P2E8] was tested, and the pKd was 3.71.

These binders were tested against T8, DVL3, Q92997 (assay: holdup assay). Conditions: plain residues with an end cap or a label only (N-terminal biotin on a linker: ado-ado).
Parameters: key: below the threshold = too weak to quantify, mostly under pKd 3.1 to 4
In the case of RELVMRVTTV [MARCHF4, Q9P2E8], the pKd is reported as “below the threshold”.
